Data on two substances can be found in patent US12686704B2, “Procoagulant peptides and use thereof” (RAMBAM MED-TECH LTD., priority 2021, dated 2026).

Where no end group is shown, it is not given here.

Experiment [1] has as its target lipidated TF, factor VIIa, factor X (Homo sapiens, UniProt P13726). Put plainly: Factor X activation assay of purified proteins (chromogenic substrate). To be noted: peptides at 5 μg/ml and 10 μg/ml; compared to control; FIG. 1A. The class given is biochemical. The procedure: FIGS. 1A-1C include vertical bar graphs and thromboelastography (TEG) curves, showing that peptide 16 and peptide 16AC increase coagulation. Peptide 16 and 16AC were studied in an assay of purified proteins that included lipidated TF (4 nM), factor VIIa (40 nM), factor X (1.4 μM) and assay buffer. Factor X activated form (Xa) level was studied using a chromogenic substrate (1 mM). […] Bovine factor Xa diluted in the assay buffer was used to generate a standard curve. Without addition of TF (two right columns), no factor Xa was generated. […] (1B) A citrated pooled normal human blood sample (n=3) was left for 4 hours at room temperature in order to expose TF in bloods cells. Following this period, the peptides 16 and 16AC were added (5 μg/ml) along with calcium. […] Representative TEG curves are shown. (1C) The study presented in FIG. 1B was repeated 3 times with different pooled plasma. […] Peptide 16 (non-modified); peptide 16 comprising a C-terminal amid group (16A); peptide 16 comprising an N-terminal acetyl group (16C); and peptide 16 comprising a C-terminal amid group and an N-terminal acetyl group (16AC). In 1B: for control—SP min=11.2; R min=12.8; K min=3.8, Angle deg=52.0; and MA mm=47.9, for Peptide 16—SP min=5.2; R min=6.4; K min=2.8, Angle deg=63.3; and MA mm=50.4, and for Peptide 16AC—SP min=4.7; R min=5.6; K min=2.5, Angle deg=63.1; and MA mm=53.8.
Peptides 16, 16C, 16A and 16AC were studied in an assay of purified proteins that included lipidated TF (0.004 μM), factor VIIa (0.04 μM), factor X (1.4 μM) and assay buffer. Factor X activated form (Xa) level was studied using a chromogenic substrate (1 mM). […] Bovine factor Xa diluted in the assay buffer was used to generate a standard curve. Without addition of TF (two right columns), no factor Xa was generated.

Experiment [2] relates to Hemophilic mice (VIII-KO mice). Put plainly: Mouse-tail bleeding time model in hemophilic mice. To be noted: subcutaneous 150-375 μg/kg; FIG. 3D. It is filed as in vivo. As for the experimental part: FIGS. 3A-3D include vertical bar graphs showing that modified heparanase procoagulant peptides of the invention decrease bleeding in hemophilic mice. Hemophilic mice (VIII-KO mice; C57BL/6 background, strain name B6;129S4-F8tm1Kaz/J) were studied. (3A) Peptides 16 or 16AC were injected subcutaneously at the flank in doses 150, 225, 300, 375 μg/kg. A mouse-tail bleeding time model was performed. The peptides were dissolved in phosphate-buffered saline (PBS). Control (0) group was injected with the vehicle phosphate buffered saline (PBS). (3D) is identical to (3A) with the exception that peptide 16 C […] and peptide 16A […] were also administered in the disclosed doses. In a similar study, the peptides were topically applied on the tail immediately following the incision of the tail at a rate of a drop every 5 seconds (3B). […] Mann-Whitney U test was used. Results represent mean±SD. *p<0.05.
Hemophilic mice (VIII-KO mice; C57BL/6 background, strain name B6;129S4-F8tm1Kaz/J) were studied. Peptides 16 or 16AC were injected sub-cutis at the flank in doses 150, 225, 300, 375 μg/kg. A mouse-tail bleeding time model was performed. The peptides were dissolved in phosphate-buffered saline (PBS). Control (0) group was injected with the vehicle phosphate buffered saline (PBS) (FIGS. 3A and 3D). In a similar study, the peptides were topically applied on the tail immediately following the incision of the tail at a rate of a drop every 5 seconds (FIG. 3B).

Sequence of lipidated TF, factor VIIa, factor X (P13726 33-295): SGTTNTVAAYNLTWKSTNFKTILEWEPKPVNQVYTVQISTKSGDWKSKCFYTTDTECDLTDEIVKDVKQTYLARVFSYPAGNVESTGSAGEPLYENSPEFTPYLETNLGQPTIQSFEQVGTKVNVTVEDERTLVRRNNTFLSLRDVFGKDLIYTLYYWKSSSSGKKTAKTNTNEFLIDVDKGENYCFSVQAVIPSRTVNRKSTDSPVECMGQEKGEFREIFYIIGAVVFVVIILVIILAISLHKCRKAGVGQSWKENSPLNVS
Sequence of lipidated TF, factor VIIa, factor X (P08709 61-212 partner limits assumed): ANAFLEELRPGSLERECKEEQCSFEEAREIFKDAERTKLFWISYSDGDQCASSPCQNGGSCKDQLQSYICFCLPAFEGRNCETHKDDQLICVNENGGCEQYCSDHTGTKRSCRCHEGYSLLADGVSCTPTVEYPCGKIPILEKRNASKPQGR
Sequence of lipidated TF, factor VIIa, factor X (P08709 213-466 partner limits assumed): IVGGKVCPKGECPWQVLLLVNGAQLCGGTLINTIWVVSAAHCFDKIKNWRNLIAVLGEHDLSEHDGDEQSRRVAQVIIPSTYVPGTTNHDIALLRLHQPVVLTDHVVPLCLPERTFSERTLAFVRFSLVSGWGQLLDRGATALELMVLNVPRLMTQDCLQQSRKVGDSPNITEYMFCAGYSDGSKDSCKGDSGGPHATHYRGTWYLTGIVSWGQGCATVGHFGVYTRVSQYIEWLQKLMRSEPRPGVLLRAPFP

For the substance “GSKRRKLRVYLHCT-amid (GSKRRKLRVYLHCT-NH2) [Peptide 16A, peptide 16 comprising a C-terminal amid group]”, the “activation of factor X (factor Xa level)” value in experiment [1] was “significantly increased activation of factor X compared to control”. In experiment [2], the “bleeding time reduction, comparison between peptides” value was “significant better effect to reduce the bleeding time compared to peptide 16 and peptide 16C”.
For “acetyl-GSKRRKLRVYLHCT (Ac-GSKRRKLRVYLHCT) [Peptide 16C, peptide 16 comprising an N-terminal acetyl group]”, the “activation of factor X (factor Xa level)” value in experiment [1] is “significantly increased activation of factor X compared to control”.
